# Source: publication PMC9176062, “Phase Ib study of combinations of avadomide (CC‐122), CC‐223, CC‐292, and rituximab in patients with relapsed/refractory diffuse large B‐cell lymphoma” (EJHaem, 2022)
# Columns and labels:
# R/R DLBCL = conditions: cited from earlier work
# DOHH2 cells = assay: DOHH2 xenograft model; type: in vivo; conditions: DLBCL xenograft model (DOHH2, SCID mice); avadomide oral once daily, rituximab 1 mg/kg once weekly
# Protocol: Female severe combined immunodeficiency (SCID) mice (CB17/Icr-Prkdcscid, Charles River) were 8 weeks old, with body weights ranging from 15.0 g to 23.2 g on day 1 of these studies. Each SCID mouse was injected subcutaneously in the right flank with 5 × 10^6 DOHH2 cells (0.2-mL cell suspension). Tumors were calipered in 2 dimensions to monitor growth as their mean volume approached 100 to 150 mm^3. Fourteen days after tumor cell implantation, mice were sorted into treatment groups of 10 mice per group. Tumors were calipered twice weekly during the study. Avadomide was suspended in 0.5% carboxymethyl cellulose (0.25% Tween-80 in deionized water). Vehicle control and avadomide were each administered via oral gavage once daily; rituximab (1 mg/kg) was administered once weekly for the duration of the study.
# FIGURE S1 Change in the percentage of apoptotic cells over time (A) and in vivo tumor growth response after combination treatment with avadomide and rituximab (B). Natural killer cell activity against DOHH or RL FL cell lines determined by flow cytometry is shown (A). Female CB17 severe combined immunodeficiency mice implanted subcutaneously with DOHH2 cells were administered vehicle and avadomide once daily and rituximab given 1 mg/kg once weekly (B). SEM, standard error of the mean; TGI, tumor growth inhibition. mm^3
# patients with R/R DLBCL = assay: Treatment duration, modification, and exposure; type: in vivo
# Protocol: CC‐122 hydrochloride, referred to here as CC‐122, as an active pharmaceutical ingredient in capsule (AIC) formulation, was administered orally once daily (QD). An alternate intermittent schedule of CC‐122 QD for five of every seven consecutive days (5/7), which improved tolerability and reduced the frequency and severity of neutropenia in a study of CC‐122 monotherapy in DLBCL, was also explored. CC‐292 was administered orally twice daily (BID) and CC‐223 was administered orally QD. Rituximab was administered on day 8 of cycle 1, day 1 of cycles 2–6, and day 1 of every third cycle thereafter. Patients in arm A received CC‐122 and CC‐223 with or without rituximab (starting at CC‐122 2 mg QD and CC‐223 20 mg QD), patients in arm B received CC‐122 plus CC‐292 with or without rituximab (starting at CC‐122 2 mg QD and CC‐292 500 mg BID), patients in arm C were treated with CC‐223 and CC‐292 (starting at CC‐223 20 mg QD and CC‐292 500 mg BID), and those in arm D received CC‐122 plus rituximab (starting at CC‐122 2 mg QD). In arm D, a CC‐122 3 mg formulated capsule was introduced with the same strength as CC‐122 3 mg AIC. Each dose level was cleared before the next was started. If unacceptable toxicity occurred at the initial dose level, dose reductions for CC‐122 (1.5 mg QD and 1 mg QD) and CC‐223 (15 mg QD) were allowed; no starting dose reductions for CC‐292 were planned. For arm A, the Safety Review Committee (SRC) determined which of the two drugs in the doublet to reduce. For arms B and D, the CC‐122 dose was reduced and for arm C, the CC‐223 dose was reduced. Assignment of patients to study arms was at the discretion of the investigator and based on slot availability per the study design.
# Patients who experienced dose‐limiting toxicity (DLT) after receiving ≥1 dose of study treatment or those who received ≥80% of planned doses of CC‐122, CC‐223, CC‐292, and rituximab during cycle 1 without experiencing a DLT were considered DLT‐evaluable. If zero out of ≥3 or ≤1 out of six evaluable patients in a cohort experienced a DLT during cycle 1 in parallel dose cohorts, then dose escalation could occur. DLTs are defined in the Supplementary Materials; individual investigators performed response assessments and determined DLTs. The NTD was defined as the dose level at which ≥2 of six evaluable patients in a cohort experienced a DLT during cycle 1. […] During cycle 1, any adverse event (AE) that led to dose reduction was considered a DLT. Patients could resume CC‐122 at a reduced dose only if they recovered to grade ≤1 within 14 days of dose interruption; two dose reductions were allowed before the patient was withdrawn from the study. Dose reductions were permitted for CC‐122, CC‐223, and CC‐292; no dose reductions were allowed for rituximab, but treatment could be discontinued at the discretion of the investigator. […] For arms A, B, and D, CC‐122 dosing was modified to the intermittent 5/7‐day schedule based on SRC review and escalated until the MTD/RP2D was established. Treatment was given until disease progression, unacceptable toxicity, or patient/physician decision to withdraw consent.
# ^aTreatment duration defined as date of last derived dose – date of first dose + 1.
# ^bDefined as the ratio of actual dose received to planned dose over the treatment period.
# [1] = Overall (all arms with the drug)
substance,measurement,setting,value
lisocabtagene maraleucel,estimated 12‐month PFS rate,R/R DLBCL; patients with a complete response,65%
loncastuximab tesirine [reference compound],CR rates,"R/R DLBCL; monotherapy, third‐line setting",24%
rituximab [reference compound],tumor growth inhibition (TGI),DOHH2 cells,19%
same,≥1 dose interruption,patients with R/R DLBCL; Arm A (Avadomide + CC-223 ± R),9 (47.4) n (%)
same,≥1 dose interruption: Adverse event,patients with R/R DLBCL; Arm A (Avadomide + CC-223 ± R),6 (31.6) n (%)
same,≥1 dose interruption: Other,patients with R/R DLBCL; Arm A (Avadomide + CC-223 ± R),5 (26.3) n (%)
same,≥1 dose interruption,patients with R/R DLBCL; Arm B (Avadomide + CC-292 ± R),2 (16.7) n (%)
same,≥1 dose interruption: Adverse event,patients with R/R DLBCL; Arm B (Avadomide + CC-292 ± R),2 (16.7) n (%)
same,≥1 dose interruption: Other,patients with R/R DLBCL; Arm B (Avadomide + CC-292 ± R),1 (8.3) n (%)
same,≥1 dose interruption,patients with R/R DLBCL; Arm D (Avadomide + R),2 (6.7) n (%)
same,≥1 dose interruption: Adverse event,patients with R/R DLBCL; Arm D (Avadomide + R),1 (3.3) n (%)
same,≥1 dose interruption: Other,patients with R/R DLBCL; Arm D (Avadomide + R),2 (6.7) n (%)
same,≥1 dose interruption,patients with R/R DLBCL; [1],13 (21.3) n (%)
same,≥1 dose interruption: Adverse event,patients with R/R DLBCL; [1],9 (14.8) n (%)
same,≥1 dose interruption: Other,patients with R/R DLBCL; [1],8 (13.1) n (%)
tisagenlecleucel,36‐month PFS,R/R DLBCL; patients with a complete response at 3 months,70%
